Data on four molecules can be found in US11697680B2, “Anti-GP73 antibodies and immunoconjugates” (CUREAB GMBH, priority 2016, dated 2023).

Test [1] relates to HEK293 GP73-His full length cells. Description: Furin blockage experiment: sGP73 in cell culture supernatant (Up-converting Phosphor Technology). In kind it is cell-based, human. The settings on record: 31.3 ug/ml or 62.5 ug/ml; after 96 hours. The method, then: FIG. 23 Measurement of sGP73 in cell culture supernatant after treatment of 293HEK GP73-His full length cells with Bevacizumab or G2-2opti (IgG1). Furin cleavage is a prerequisite for sGP73 to appear in the supernatant.
HEK293 GP73-His full length cells were seeded in 96 well plates 1500 cells per well and cultured overnight. Next day, medium was changed and cells were treated with Bevacizumab 31.3 ug/ml, Bevacizumab 62.5 ug/ml, G2-2opti(IgG1) 31.3 ug/ml or G2-2opti (IgG1) 62.5 ug/ml. To examine furin cleavage inhibition the respective antibody concentrations were chosen in a range that had no impact on cell proliferation. After 96 hours the supernatants were collected for measurement of sGP73 exploiting the Up-converting Phosphor Technology (UCP) and the remaining cell layer was used in a proliferation assay with PrestoBlue reagent (Thermofisher) described in Example 8.
For sGP73 detection each supernatant was diluted 1:1 in Hotgen dilution buffer containing an anti GP73 UCP labelled antibody. […] GP73 concentrations were deduced from differences of light emission at the C and T line measured by inserting the test cassette into the Hotgen Up-converting Phosphor Technology (UCP) Analyser.

The subject of test [2] is HuH7 (human hepatocellular carcinoma). The experiment in a line: Cell viability / proliferation with PrestoBlue reagent. It is filed as cell-based. The settings on record: 0.125 mg/ml to 2 mg/ml, after 72 hrs. The protocol: FIG. 13A Proliferation of HuH7 cells (human hepatocellular carcinoma) after treatment with different antibodies. HuH7 cells were treated with G2-2, G2-2 plus Cetuximab, mG2-2, mG2-2 plus Cetuximab, Cetuximab or control antibody each in increasing concentrations from 0.125 mg/ml to 2 mg/ml. Proliferating cells were measured after 72 hrs. […] This effect was independent of the Fc part i.e. human IgG1 in G2-2 or murin IgG2a in mG2-2 as described in Example 8.
FIG. 13B Proliferation of HuH7 cells (human hepatocellular carcinoma), 4T1 cells (murin breast carcinoma) and CaCo2 cells (human colorectal carcinoma) after treatment with different antibodies. The three cell lines were treated with G2-1, G2-1 plus Cetuximab, Cetuximab, Bevacizumab or Bevacizumab plus Cetuximab 2 mg/ml total. Proliferating cells were measured after 72 hrs.
Cells from the cell lines HuH7 (human hepatocellular carcinoma), 4T1 (murin breast carcinoma) and CaCo2 (human colorectal carcinoma) were cultured under standard conditions in Dulbecco's modified Eagle Medium (DMEM) supplemented with 10% fetal calf serum (FCS) at 37° C. with 5% CO2. […] Fluorescence was read at 615 nm to quantify cell viability. […]
To test the effect of G2-1 on different cell lines, HuH7, 4T1 and CaCo2 cells were transferred to 96 well plates. […] Cell viability was quantified after 72 hours using PrestoBlue reagent and measuring the fluorescence at 615 nm.

In another test the test system is HuH7 cells. Description: Internalization of pHrodo Green labeled antibodies after pre-incubation with conditioned media containing soluble GP73. In kind it is cell-based, human. The settings on record: 10 ug/ml pHrodo Green labeled antibody pre-incubated over night, 24 h at 37° C. The method, then: Antibody internalization was measured by FACS using the pH-sensitive dye pHrodo Green coupled to each antibody. […] The internalization of G2-2 that binds to rGP73 is not altered as described in Example 6.
Labeled antibodies were purified by size exclusion (40K MWCO). A non binding Isotype Antibody that was not labeled with pHrodo® Green STP Ester (Iso.) was used as control for background fluorescence. 10 ug/ml of each antibody was pre-incubated over night at 4° C. with either fresh culture media or conditioned media. As conditioned media served either supernatant from HEK 293 or HEK 293 GP73-myc cells cultured for 72 hours, that was dialyzed (10 k MWCO) against 1 L fresh media each. To confirm the presence of secreted soluble GP73 after dialysis supernatants were analysed by Western Blot using an anti-myc antibody. 300 ul/well of each pre-incubated antibody was given to 0.6×10^6HuH7 cells growing in 24 well plates for 24 h at 37° C. and 5% CO2. Cells were washed and analysed by FACS.

“Also recorded” adds a separate entry of the source.

In the case of “Bevacizumab: the isotype control [reference compound]”, the “sGP73 in cell culture supernatant” value in test [1] is “no influence on sGP73 levels”.

B1: G2-2opti (IgG1): G2-2 optimized for expression in mammalian cells by directed mutagenesis of framework; CDRs untouched (antibody, V domains shown)
VH: QVQLVQSGGGVVQPGRSLRLSCAASGFTFSSYGMHWVRQAPGKGLEWVAVISYDGSNKYYADSVKGRFTISRDNSKNTLYLQMNSLRAEDTAVYYCAREGSAGMDVWGQGTTVTVSS
VL: QAVLTQPSSLSASPGASASLTCTLRSDISVGFHRIYWYQQKPGSPPQYLLRYKSDSDKQQGSGVPSRFSGSKDASANAGILLISGLQSDDEADYYCVIWHTSGVVFGGGTKLTVL
Consider B1, for which, in test [1], the “sGP73 in cell culture supernatant” value is on record as “decreases sGP73 secretion into supernatant; also recorded: reduce GP73 concentration”.

B2: mG2-2: G2-2 variable regions with murine IgG2a heavy chain and human Igk light chain constant regions (antibody)
heavy: EVQLLQSGGGVVQPGRSLRLSCAASGFTFSSYGMSWVRQAPGKGLEWVAVISYDGSNKYYADSVKGRFTISRDNSKNTLYLQMNSLRAEDTAVYYCAREGSAGMDVWGQGTTVTVSSASTTAPSVYPLAPVCGDTTGSSVTLGCLVKGYFPEPVTLTWNSGSLSSGVHTFPAVLQSDLYTLSSSVTVTSSTWPSQSITCNVAHPASSTKVDKKIEPRGPTIKPCPPCKCPAPNLLGGPSVFIFPPKIKDVLMISLSPIVTCVVVDVSEDDPDVQISWFVNNVEVHTAQTQTHREDYNSTLRVVSALPIQHQDWMSGKEFKCKVNNKDLPAPIERTISKPKGSVRAPQVYVLPPPEEEMTKKQVTLTCMVTDFMPEDIYVEWTNNGKTELNYKNTEPVLDSDGSYFMYSKLRVEKKNWVERNSYSCSVVHEGLHNHHTTKSFSRTPGK
light: DIQMTQPSSLSASPGASASLTCTLRSDISVGFHRIYWYQQKPGSPPQYLLRYKSDSDKQQGSGVPSRFSGSKDASANAGILLISGLQSDDEADYYCVIWHTSGVVFGGGTKVEIKRTVAAPSVFIFPPSDEQLKSGTASVVCLLNNFYPREAKVQWKVDNALQSGNSQESVTEQDSKDSTYSLSSTLTLSKADYEKHKVYACEVTHQGLSSPVTKSFNRGEC
Turning to B2, in test [2], the “cell proliferation / cell viability” value is recorded as “reduced depending on antibody concentration”.

B3: G2-4: hybridoma antibody against peptide AA 347-366 of human GP73 (sGP73); VH/VL SEQ ID NOs: 18 and 19 (antibody, V domains shown)
VH: QVQLEESGGGLVQPGGSLRLSCATSGFTFTDYYMSWVRQPPGKALEWLGFIRNKAKGYTTEYSASVKGRFTISRDNSQSILYLQMNTLRAEDSATYYCARDPSTNYWYFDVWGAGTTVTVSS
VL: DIVLTQSPSSLAVSAGEKVTMTCKSSQSLLNSRTRKNYLAWYQQKPGQSPKLLIYWASTRESGVPDRFTGSGSGTDFTLTISSVQAEDLAVYYCKQSYNLYTFGGGTKLEIKR
modifications: G2-4 heavy chain variable region (VH); G2-4 light chain variable region (VL)
B3: in the test on HuH7 cells, the “effect of conditioned media containing soluble GP73 on antibody internalization / cell surface binding” value is recorded as “reduces antibody binding; also recorded: reduces internalization”.
